Tests used:
[1] = target: T1, recombinant human collagen Type III (purified product of TT061226-1-3 strain)
T1 chain: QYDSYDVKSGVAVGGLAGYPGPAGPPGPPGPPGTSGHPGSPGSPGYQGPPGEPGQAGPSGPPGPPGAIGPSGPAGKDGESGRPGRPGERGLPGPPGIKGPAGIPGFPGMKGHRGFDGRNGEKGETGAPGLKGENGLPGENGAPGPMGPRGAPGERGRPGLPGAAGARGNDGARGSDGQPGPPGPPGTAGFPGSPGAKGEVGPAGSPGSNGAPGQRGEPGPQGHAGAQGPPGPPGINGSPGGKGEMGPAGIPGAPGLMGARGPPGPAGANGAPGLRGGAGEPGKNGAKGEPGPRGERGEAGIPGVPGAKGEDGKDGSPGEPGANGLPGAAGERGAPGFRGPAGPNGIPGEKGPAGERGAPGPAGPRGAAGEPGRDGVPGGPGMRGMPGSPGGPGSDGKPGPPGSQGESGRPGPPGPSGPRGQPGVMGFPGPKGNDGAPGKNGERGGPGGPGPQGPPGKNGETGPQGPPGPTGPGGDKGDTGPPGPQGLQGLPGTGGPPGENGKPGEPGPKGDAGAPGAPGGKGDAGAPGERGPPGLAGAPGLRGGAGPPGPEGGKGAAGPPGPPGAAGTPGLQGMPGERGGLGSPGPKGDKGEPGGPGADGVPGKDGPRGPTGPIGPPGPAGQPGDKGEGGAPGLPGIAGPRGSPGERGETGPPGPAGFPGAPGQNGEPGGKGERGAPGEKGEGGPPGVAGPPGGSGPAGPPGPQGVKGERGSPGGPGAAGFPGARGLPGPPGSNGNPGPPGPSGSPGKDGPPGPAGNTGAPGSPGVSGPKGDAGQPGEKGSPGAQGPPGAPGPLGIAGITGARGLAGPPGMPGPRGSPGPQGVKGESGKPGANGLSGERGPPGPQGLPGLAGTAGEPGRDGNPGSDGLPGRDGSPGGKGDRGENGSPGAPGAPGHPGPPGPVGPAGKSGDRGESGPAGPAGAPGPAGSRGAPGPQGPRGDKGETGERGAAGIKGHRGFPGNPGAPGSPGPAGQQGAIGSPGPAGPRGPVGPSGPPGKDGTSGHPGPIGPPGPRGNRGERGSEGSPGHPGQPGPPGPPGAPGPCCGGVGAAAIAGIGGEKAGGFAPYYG

[2] = target: recombinant human collagen Type I (purified product of TT080417-1-8 strain)
Chain of recombinant human collagen Type I (purified product of TT080417-1-8 strain) (chain, as listed by the source, chain 1 of 2): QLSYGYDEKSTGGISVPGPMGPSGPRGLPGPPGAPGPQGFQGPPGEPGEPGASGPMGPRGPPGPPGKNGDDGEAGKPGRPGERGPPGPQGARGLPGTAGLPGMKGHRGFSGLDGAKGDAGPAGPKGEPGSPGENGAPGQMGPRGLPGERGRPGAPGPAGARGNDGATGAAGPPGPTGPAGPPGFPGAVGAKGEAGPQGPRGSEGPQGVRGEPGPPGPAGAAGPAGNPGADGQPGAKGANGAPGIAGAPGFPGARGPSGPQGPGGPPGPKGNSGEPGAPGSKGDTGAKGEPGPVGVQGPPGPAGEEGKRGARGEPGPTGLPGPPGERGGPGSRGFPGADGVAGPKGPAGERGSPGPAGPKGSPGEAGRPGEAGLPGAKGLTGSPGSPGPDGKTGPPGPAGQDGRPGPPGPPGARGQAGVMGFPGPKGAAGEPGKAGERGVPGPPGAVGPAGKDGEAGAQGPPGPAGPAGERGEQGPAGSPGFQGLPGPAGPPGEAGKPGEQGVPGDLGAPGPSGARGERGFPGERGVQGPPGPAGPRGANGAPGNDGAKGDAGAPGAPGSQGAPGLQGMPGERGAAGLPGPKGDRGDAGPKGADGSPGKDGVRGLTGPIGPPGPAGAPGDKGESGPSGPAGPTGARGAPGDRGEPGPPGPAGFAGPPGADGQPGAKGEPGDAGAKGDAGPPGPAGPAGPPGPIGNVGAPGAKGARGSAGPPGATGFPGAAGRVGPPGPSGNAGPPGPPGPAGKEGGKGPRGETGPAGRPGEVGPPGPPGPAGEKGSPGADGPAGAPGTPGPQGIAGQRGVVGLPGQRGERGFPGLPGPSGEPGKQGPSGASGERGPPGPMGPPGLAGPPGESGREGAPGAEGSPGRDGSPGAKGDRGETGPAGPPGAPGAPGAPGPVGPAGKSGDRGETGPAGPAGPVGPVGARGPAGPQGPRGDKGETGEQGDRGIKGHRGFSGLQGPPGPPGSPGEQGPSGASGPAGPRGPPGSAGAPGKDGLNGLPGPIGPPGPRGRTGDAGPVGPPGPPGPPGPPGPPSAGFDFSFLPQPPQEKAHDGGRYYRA
Chain of recombinant human collagen Type I (purified product of TT080417-1-8 strain) (chain, as listed by the source, chain 2 of 2): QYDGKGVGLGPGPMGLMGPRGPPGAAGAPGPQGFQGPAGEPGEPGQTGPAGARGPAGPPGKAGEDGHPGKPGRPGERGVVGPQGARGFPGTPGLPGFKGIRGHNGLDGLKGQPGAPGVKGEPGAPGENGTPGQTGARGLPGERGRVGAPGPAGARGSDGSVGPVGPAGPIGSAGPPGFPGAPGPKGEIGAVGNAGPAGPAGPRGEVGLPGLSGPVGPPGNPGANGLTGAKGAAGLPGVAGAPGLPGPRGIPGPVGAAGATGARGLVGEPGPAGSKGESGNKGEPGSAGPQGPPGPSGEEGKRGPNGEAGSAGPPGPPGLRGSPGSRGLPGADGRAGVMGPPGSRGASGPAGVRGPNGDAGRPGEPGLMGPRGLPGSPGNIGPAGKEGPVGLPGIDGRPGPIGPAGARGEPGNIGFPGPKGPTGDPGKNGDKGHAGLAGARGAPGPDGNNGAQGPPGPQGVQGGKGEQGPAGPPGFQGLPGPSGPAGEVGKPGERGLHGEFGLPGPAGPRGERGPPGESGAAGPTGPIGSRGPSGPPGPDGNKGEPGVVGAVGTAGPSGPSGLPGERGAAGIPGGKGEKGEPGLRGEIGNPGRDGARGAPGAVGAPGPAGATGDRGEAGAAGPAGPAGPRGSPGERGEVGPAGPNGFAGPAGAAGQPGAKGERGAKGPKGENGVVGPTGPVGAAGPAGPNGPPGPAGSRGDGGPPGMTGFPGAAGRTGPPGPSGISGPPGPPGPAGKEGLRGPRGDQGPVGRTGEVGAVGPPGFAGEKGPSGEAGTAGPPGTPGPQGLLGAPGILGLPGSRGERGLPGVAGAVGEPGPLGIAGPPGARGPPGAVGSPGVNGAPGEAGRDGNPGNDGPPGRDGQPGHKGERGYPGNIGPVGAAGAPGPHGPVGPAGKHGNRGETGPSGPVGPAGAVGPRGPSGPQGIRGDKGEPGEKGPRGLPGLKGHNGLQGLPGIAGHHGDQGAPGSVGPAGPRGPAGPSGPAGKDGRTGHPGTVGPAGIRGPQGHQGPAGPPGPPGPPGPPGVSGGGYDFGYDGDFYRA

B1: lysyl hydroxylase 1 (protein)
chain: KGDAKPEDNLLVLTVATKETEGFRRFKRSAQFFNYKIQALGLGEDWNVEKGTSAGGGQKVRLLKKALEKHADKEDLVILFTDSYDVLFASGPRELLKKFRQSRSQVVFSAEELIYPDRRLETKYPVVSDGKRFLGSGGFIGYAPNLSKLVAEWEGQDSDSDQLFYTKIFLDPEKREQINITLDHRCRIFQNLDGALDEVVLKFEMGHVRARNLAYDTLPVLIHGNGPTKLQLNYLGNYIPRFWTFETGCTVCDEGLRSLKGIGDEALPTVLVGVFIEQPTPFVSLFFQRLLRLHYPQKHMRLFIHNHEQHHKAQVEEFLAQHGSEYQSVKLVGPEVRMANADARNMGADLCRQDRSCTYYFSVDADVALTEPNSLRLLIQQNKNVIAPLMTRHGRLWSNFWGALSADGYYARSEDYVDIVQGRRVGVWNVPYISNIYLIKGSALRGELQSSDLFHHSKLDPDMAFCANIRQQDVFMFLTNRHTLGHLLSLDSYRTTHLHNDLWEVFSNPEDWKEKYIHQNYTKALAGKLVETPCPDVYWFPIFTEVACDELVEEMEHFGQWSLGNNKDNRIQGGYENVPTIDIHMNQIGFEREWHKFLLEYIAPMTEKLYPGYYTRAQFDLAFVVRYKPDEQPSLMPHHDASTFTINIALNRVGVDYEGGGCRFLRYNCSIRAPRKGWTLMHPGRLTHYHEGLPTTRGTRYIAVSFVDP
B1 was tested, and the “composition ratio of hydroxylated lysine to the total lysine residues (amino acid analysis of purified collagen)” value [1] was “a composition ratio of hydroxylated lysine to the total lysine residues was increased up to 36.9%” and the “composition ratio of hydroxylated lysine to the total lysine residues (amino acid analysis of purified collagen)” value [2] was “a composition ratio of the hydroylated lysine to the total lysine residues was increased up to 50.1%”.
